The values below are quoted from earlier work in article PMC7290751.

pKd: −log10 of the molar value.

The target in one data set is Kv1.2 (Homo sapiens) (UniProt P16389).
The target of the next data set is Kv1.3 (Homo sapiens) (UniProt P22001).
Chain of UniProt P22001 (P22001 whole entry): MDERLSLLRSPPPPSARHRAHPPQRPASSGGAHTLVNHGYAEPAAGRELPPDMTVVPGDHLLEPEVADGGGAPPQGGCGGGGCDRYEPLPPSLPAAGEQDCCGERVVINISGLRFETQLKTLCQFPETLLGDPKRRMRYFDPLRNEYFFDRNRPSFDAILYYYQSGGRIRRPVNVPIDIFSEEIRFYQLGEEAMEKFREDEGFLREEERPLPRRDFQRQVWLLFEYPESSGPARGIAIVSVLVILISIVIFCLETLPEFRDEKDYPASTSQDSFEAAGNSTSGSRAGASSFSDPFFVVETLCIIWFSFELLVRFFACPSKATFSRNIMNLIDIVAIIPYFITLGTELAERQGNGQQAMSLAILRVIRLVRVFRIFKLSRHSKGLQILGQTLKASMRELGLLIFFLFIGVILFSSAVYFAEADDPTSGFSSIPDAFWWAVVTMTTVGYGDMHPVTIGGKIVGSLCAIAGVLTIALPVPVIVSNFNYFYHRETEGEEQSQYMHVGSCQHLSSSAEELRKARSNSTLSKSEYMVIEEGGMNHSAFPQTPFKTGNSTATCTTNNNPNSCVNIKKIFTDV

Chain of UniProt P16389 (P16389 whole entry): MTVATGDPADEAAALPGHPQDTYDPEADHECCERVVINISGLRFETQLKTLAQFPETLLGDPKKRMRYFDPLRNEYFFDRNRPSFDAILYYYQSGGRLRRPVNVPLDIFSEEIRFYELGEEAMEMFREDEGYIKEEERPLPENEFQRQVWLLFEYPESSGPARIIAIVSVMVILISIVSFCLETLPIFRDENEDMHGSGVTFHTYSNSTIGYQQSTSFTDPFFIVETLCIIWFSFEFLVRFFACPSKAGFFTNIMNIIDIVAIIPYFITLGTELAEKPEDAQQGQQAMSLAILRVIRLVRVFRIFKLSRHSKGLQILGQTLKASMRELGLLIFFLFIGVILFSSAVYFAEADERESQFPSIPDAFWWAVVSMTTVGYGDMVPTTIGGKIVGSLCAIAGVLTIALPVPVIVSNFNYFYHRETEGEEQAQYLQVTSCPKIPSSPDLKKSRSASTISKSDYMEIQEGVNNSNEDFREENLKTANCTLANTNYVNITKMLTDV

As for margatoxin (MgTx) (from UniProt P40755), the pKd is 11.19 with Kv1.2 (Homo sapiens) and 10.93 in the data set with Kv1.3 (Homo sapiens).

The term pKd denotes the negative decadic logarithm of the Kd, by convention in mol/L.
